Data on two molecules can be found in patent US9453061B2, “Method and compositions for treatment of calcineurin-related diseases” (BROWN UNIVERSITY, priority 2014, dated 2016).

In general, Kd refers to a measure of binding affinity in units of concentration.

For the experiment, the target named is T1, calcineurin (Homo sapiens, UniProt Q08209).
T1 construct: made in house
Put plainly: Isothermal titration calorimetry (ITC) of RCAN1 constructs with calcineurin. It is filed as binding. As to the method:
Only RCAN1^89-197 (SEQ ID NO: 2) was labeled with NMR active nuclei; calcineurin was unlabeled. […] See, FIG. 2.
Affinity of each RCAN1 construct for calcineurin was measured using ITC to determine the individual contribution of each motif to binding. […] See, FIG. 2A.
The CNB subunit was analyzed to determine whether the subunit influences binding by generating a construct of only the calcineurin catalytic domain, CNAcat containing residues 1-348, and identical to a previously characterized CNA construct. See, Takeuchi et al., Structure 15, 587-97 (2007).
To determine how the TxxP (SEQ ID NO: 11) motif binds and engages calcineurin, the residues within and surrounding the TxxP (SEQ ID NO: 11) motif were mutated (i.e. K182A/E, Q185A, E190R/A, Y191A) and ITC was used to quantify which residues are most critical for calcineurin binding. ITC was used to determine whether the TxxP (SEQ ID NO: 11) motif binds only the CNA catalytic domain, or also requires CNB for binding using RCAN1^128-197, without requiring the LxVP (SEQ ID NO: 10) motif. Calcineurin active site residues were mutated as follows: R122A/D, H151A, D118A, R254A/D; and the change in affinity was quantified.

T1 sequence (Q08209 1-391 limits assumed): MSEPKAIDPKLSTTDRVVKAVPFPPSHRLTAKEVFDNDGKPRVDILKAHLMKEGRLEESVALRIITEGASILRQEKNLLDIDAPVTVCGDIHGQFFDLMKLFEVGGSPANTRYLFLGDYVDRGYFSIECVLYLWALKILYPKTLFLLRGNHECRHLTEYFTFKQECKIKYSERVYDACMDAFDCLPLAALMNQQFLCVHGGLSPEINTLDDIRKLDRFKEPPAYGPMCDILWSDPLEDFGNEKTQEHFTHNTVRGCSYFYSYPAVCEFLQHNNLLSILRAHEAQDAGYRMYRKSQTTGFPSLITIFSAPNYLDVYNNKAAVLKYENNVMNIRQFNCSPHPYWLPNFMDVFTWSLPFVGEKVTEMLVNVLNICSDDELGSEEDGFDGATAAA
T1 sequence (P63098 whole entry partner): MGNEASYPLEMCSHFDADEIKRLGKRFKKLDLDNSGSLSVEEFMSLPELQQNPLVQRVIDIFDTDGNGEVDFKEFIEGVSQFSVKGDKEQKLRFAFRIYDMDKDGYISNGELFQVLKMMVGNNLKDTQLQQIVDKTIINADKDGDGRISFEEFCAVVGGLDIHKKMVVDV

As to “RCAN1^128-192: within SEQ ID NO: 2; includes RCAN1^128-164 and the TxxP site”, the Kd was around 300 nM.

B1: RNA-binding domain (amino acid positions 1-88): structured N-terminal RNA-binding domain of RCAN1, amino acid positions 1-88 (protein, UniProt P53805 1-88, looked up, fragment)
chain: MEDGVAGPQLGAAAEAAEAAEARARPGVTLRPFAPLSGAAEADEGGGDWSFIDCEMEEVDLQDLPSATIACHLDPRVFVDGLCRAKFE
As to B1, the “binding to calcineurin (in words)” value was “does not interact directly”.
